Test system: MS2 coat protein
Test: apparent KD of MS2 coat protein; designed switch direction (-1 OFF switch, 1 ON switch): 1; higher = weaker reporter binding
How it was run: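 Each step of the titration lasted 0.8–1.5 h at the lowest concentration and 10–20 min at the highest. The protein, SNAP-549-labelled MS2 coat protein, went from 0.7 or 1.5 nM doubling to 3 µM over RNA switches transcribed on Illumina chips by stalled E. coli RNA polymerase. Normalised cluster fluorescence was curve-fitted, and the per-design median over clusters is given as apparent KD.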

[1] = Eterna round: R95, input ligand: FMN 200 uM
[2] = Eterna round: R95, input ligand: microRNA oligo, concentration not stated
[3] = Eterna round: R95, input ligand: none
[4] = input ligand: microRNA oligo, concentration not stated

| Sequence | apparent KD of MS2 coat protein [1] [nM] | apparent KD of MS2 coat protein [2] [nM] | apparent KD of MS2 coat protein [3] [nM] | apparent KD of MS2 coat protein (input ligand: FMN 200 uM) [nM] | apparent KD of MS2 coat protein [4] [nM] | apparent KD of MS2 coat protein (input ligand: none) [nM] |
| --- | --- | --- | --- | --- | --- | --- |
| AGUCCAGCCUGAGCUGGACAAAGGCAUGUACAUGAGGAUCACCCAUGUCAUGUACAAGCUUUUUGCUCGUCUUAAAA [Zipper 46 - 1] (puzzle: Sensor for hsa-mir-208a) | 161 | 14.9 | 187 | – | – | – |
| AACAAUCUAUCUGAGGAUAUCAUGAAAUAAACAUGAGGAUCACCCAUGUGCAGGAAAAUUGCAUAUGAGAAGGCAGAUAGAUUGA [salish99_ss2_r3_044] (puzzle: Same State 2) | 37.9 | 771 | 669 | – | – | – |
| UCUGCUGCCCAAGGAUAUCAGCGUGGUAUCCACAUGAGGAUCACCCAUGUAGGUCAGCACUACCCUGAGAAGGUGGGAAAAUAA [Eternabot solution 2] (Eterna round: R96, puzzle: Same State NG 2) | – | – | – | 14.4 | 10.6 | 15.1 |
| GAGAGAUGGCUAGGAUAUUCGGUGAUAAUGAUAGAAGAAGGAGCUGACAUGAGGAUCACCCAUGUGGGAAUAAUCCAGAGAGAG [Parity 19 - Jieux - Same State NG 1] (Eterna round: R96, puzzle: Same State NG 1) | – | – | – | 167 | 56.1 | 96.7 |
| AUUAUUUAUGCAGGAUAUGAUUAACAUGAGGAUCACCCAUGUGGUGUUGUGAGUAAGGAGAGUGAUCAGAAGGGCAUUUUUUUC [JMF's solution 59] (Eterna round: R96, puzzle: Same State NG 2) | – | – | – | 381 | 214 | 397 |
| GGUCGGACCUACAUGAGGAUCACCCAUGUUCCGGAAACGGCAUAGGAUAUCUGUCCGAAAAGGUCAGAGAAGGGUGAACCGACC [Fiskers NG3ss - 74] (Eterna round: R96, puzzle: Same State NG 3) | – | – | – | 145 | 160 | 162 |
| AUAAGUUCGAUGCUCGUCUCUCCGUACUAACAUGAGGAUCACCCAUGUGAUCGGGCAGUAGCCCGAUCAGUAUGGCC [Bizain] (puzzle: Sensor for hsa-mir-208a) | 90.7 | 68.3 | 114 | – | – | – |
| UGAAUAGUUACAGGAUAUGAGCCGUAAAUUGGGUCAGAAGGGUGGGUGUUUUGCGCUGUGUGCUACAUGAGGAUCACCCAUGUU [SameState NG1 #33] (Eterna round: R96, puzzle: Same State NG 1) | – | – | – | 520 | 172 | 240 |
| AGGCAAGCUUUUUGCUGGUAUGGAGGAUAACAUGAGGAUCACCCAUGUAUUGGAGGUGUUGUGGAUUUGAGAAAGAA [JR_SHM208A_Sub004] (puzzle: Sensor for hsa-mir-208a) | 74 | 94.6 | 103 | – | – | – |
| GUUACAUGAGGAUCACCCAUGUAUGUGUGGGAGUAAGUGUCUUAGGAUAUCUGUGAUUUAAUUUAAGAGAAGGAAGAUUGUUGU [JMF's solution 32] (Eterna round: R96, puzzle: Same State NG 3) | – | – | – | 126 | 71.6 | 96.1 |
| AUAAGACAGGCAGGAUAUGGGCCUGACUCUGAUAUCAGAGUCUACACAUGAGGAUCACCCAUGUCCCAGAAGGGCCUGAAGAAG [Zavean] (Eterna round: R96, puzzle: Same State NG 2) | – | – | – | 17.6 | 92.2 | 102 |
| UGAAUAAUGAUAGGAUAUACAUGAGGAAUCCUCGUAGAAGGAUCAUGACAUGAGGAUCACCCAUGUAGCGCUCGAAAGAGCGCA [Mat - Same State NG 1 - JL mod - D52] (Eterna round: R96, puzzle: Same State NG 1) | – | – | – | 186 | 54.9 | 232 |
| GAGUGGAGGAGAGGAUAUACAAUGAUAAUCACAGUAGAAGGUUCUAACAUGAGGAUCACCCAUGUAGGACUAUUCCUGAGAGAA [Parity 49 - Jieux - Same State NG 1] (Eterna round: R96, puzzle: Same State NG 1) | – | – | – | 10.2 | 9.32 | 15.7 |
| GGUACUAUCACAGGAUAUGCUAUCCUUUGGGUAGCAGAAGGGUGGUACAUGAGGAUCACCCAUGUGGUGCCAGGGCGUGAGCCC [JL SSNG1 1.97] (Eterna round: R96, puzzle: Same State NG 1) | – | – | – | 200 | 67.9 | 318 |
| GUGGUCAGACAUGAGGAUCACCCAUGUGGAAUAAAUAAGGUUUAGGAUAUGGAAUAUAGGAUAUACCAGAAGGGAGGGUUGGUG (Eterna round: R96, puzzle: Same State NG 3) | – | – | – | – | 90.4 | – |
| GAGUAGUUGAAAGGAUAUAGAUUGUUGUAGGAUCUAGAAGGUUCUAACAUGAGGAUCACCCAUGUAGGACUAUUCCUGUGUAUC [Parity 87 - Jieux - Same State NG 1] (Eterna round: R96, puzzle: Same State NG 1) | – | – | – | 11.5 | 8.94 | 13.1 |

| Sequence | apparent KD of MS2 coat protein [1] [nM] | apparent KD of MS2 coat protein [2] [nM] | apparent KD of MS2 coat protein [3] [nM] | apparent KD of MS2 coat protein (input ligand: FMN 200 uM) [nM] | apparent KD of MS2 coat protein [4] [nM] | apparent KD of MS2 coat protein (input ligand: none) [nM] |
| --- | --- | --- | --- | --- | --- | --- |
| CUGAGCGAUCUAGGAUAUCACGUCGUUUAGACGUGAGAAGGAGAUCAUAACAUGAGGAUCACCCAUGUAUUACAUGAAGCUCAG [SSNG1/6-A3] (Eterna round: R96, puzzle: Same State NG 1) | – | – | – | 14.9 | 16.9 | 19.1 |
| GUUAGGAAUCUAGCAAACAUGAGGAUCACCCAUGUAAGUGGGAAGGAUAUGGUACAGAAACUGUACCAGAAGGUCUUAUUAAUU [Omei SS(NG) 3 AV1] (Eterna round: R96, puzzle: Same State NG 3) | – | – | – | 128 | 246 | 306 |
| CCGCGCUGUCGAGAGGAUAUGCGGUGAUGGACAUGAGGAUCACCCAUGUUAGCGAUAGCAUUACUGUAGAAGGCUCUACGGCGGC [JL-ss2-3.09 ViennaUCT mod] (puzzle: Same State 2) | 12.2 | 10.4 | 11.9 | – | – | – |
| CCGGUUUAUGGAGGAUAUGGAGCCUUAUUGGCUCCAGAAGGCUAAUAACAUGAGGAUCACCCAUGUCCGGCGGUCAAUAGACCG [Eli NG1ss - 57] (Eterna round: R96, puzzle: Same State NG 1) | – | – | – | 21.7 | 69.8 | 90.5 |
| GCAUGGUUACAUGCUAUACAUGAGGAUCACCCAUGUGAUGGGAAGGAUAUGUCCUCAAUUAGUGGACAGAAGGUCCAAACAUUU [Fiskers NG3ss - 1] (Eterna round: R96, puzzle: Same State NG 3) | – | – | – | 136 | 234 | 939 |
| UUAUCUCUUACAUGAGGAUCACCCAUGUUUUUAUGUCUUAGACAGGAUAUAGUAGUCUCGUAUUACUAGAAGGGUCUUUUUAUU [JR_SSNG3_Sub020] (Eterna round: R96, puzzle: Same State NG 3) | – | – | – | 18.7 | 22.4 | 26.4 |
| GCGCAGCCGGGUGAGGAUAUCGGUGGUAAAACAUGAGGAUCACCCAUGUCCGAAGCUCGGACUUCCGAGAAGGCGCCCAGCUGCA [Erisin] (puzzle: Same State 2) | – | 61.2 | – | – | – | – |
| CCGAUGAUAGGACAGGAUAUGACUGUCGUCACAUGAGGAUCACCCAUGUCCCGGCAAUGCCACCGUUAGAAGGGUCCUAUCUCGG [Orraais] (puzzle: Same State 2) | – | 11.9 | – | – | – | – |
| CUCAAACAUGAGGAUCACCCAUGUGUUGUCAUGGGAGGAUAUCCCAGUUCGUUGUAGUCGGGAGAAGGCCUAUGUC [× ×•×ª×• ×ž×“×™× ×” × ×—×ª-13] (puzzle: Same State 1) | – | 54.9 | – | – | – | – |
| UUAAUUUACUGAGGAUAUCGUGUCGUCUGAUUUGACAUGAGGAUCACCCAUGUGUGAAGUGGUAUCGAGAAGGCAGUUUUCUUA [JR_SSNG2_Sub027] (Eterna round: R96, puzzle: Same State NG 2) | – | – | – | 24.2 | 42.6 | 75.5 |
| AGCUAUUACGAAGGAUAUUCUGACAUGAGGAUCACCCAUGUCUUCAUGAUUUAUUGUGAUCACGUGGAGAAGGUUGUACUAACA [SameState NG2 #27] (Eterna round: R96, puzzle: Same State NG 2) | – | – | – | 90.4 | 77.9 | 91.4 |
| UUAGAAUUGCAAGGAUAUCUAAUUUAGAUAGUAAGAGAAGGUGCUUGAUAGUUACAUGAGGAUCACCCAUGUUUUUGGGUUUAU [JR_SSNG1_Sub058] (Eterna round: R96, puzzle: Same State NG 1) | – | – | – | – | 416 | – |
| CGGGACAGACCCAACAUGAGGAUCACCCAUGUCCUCGCAGGUCAGGAUAUUAUUAGGAUCACCAGUGAGAAGGGACGGUGAACC (Eterna round: R96, puzzle: Same State NG 3) | – | – | – | 470 | 281 | 373 |
| GGCUAGGAUAUCUGCAGGAUCACCGCGGAGAAGGAGCUAAGCUAGGAUAUCCGCAGGAUCACCGCGGAGAAGGAGCAUAAUAUA [pwkr ssNG3 DX 2xF5 +2xFMN.15] (Eterna round: R96, puzzle: Same State NG 3) | – | – | – | 81.5 | 20.3 | 18.1 |
| ACAUGAGACAUAGGAUAUCUUGUACCUACAUGUGACAUGAGGAUCACCCAUGUGGUAAGUAUGAGAGAGAAGGAUGAGAUAUGU [Equivalence 48 - Jieux - Same State NG 2] (Eterna round: R96, puzzle: Same State NG 2) | – | – | – | 17.5 | 17.9 | 20.6 |

From the supplement of paper PMC9170038
